What was measured:
ORAI1 (R91W) = target: T1, ORAI1 (R91W) (Homo sapiens, UniProt Q96D31, R91W); test: Cameleon D3 cpV intravesicular Ca^2+ assay, vesicles with ORAI1 (R91W); assay type: biochemical; settings: vesicles containing ORAI1 (R91W)
T1 construct: the ORAI functional fragment is ORAI1 (65-301), ORAI1 (65-87), or full length ORAI1; made in house; host or cells: S. cerevisiae NY17 (sec6-4), isolated secretory vesicles
Excerpt: (§1) Confirmation that Ca^2+ release from the vesicles was due to gating of the ORAI 1 channel was sought. […] It was concluded that the in vitro assay reflects STIM 1-dependent gating of ORAI1 and Ca^2+ flux through the ORAI1 channel pore.
(§2) The yeast expression vector pBEVY-GU60 allows for simultaneous expression of two transgenes by means of the bidirectional GAL1-10 promoter. The FRET-based calcium sensors D3 cpV and D4 cpV53 were fused at the N-terminus with the S. cerevisiae α-mating factor secretion signal (Bitter, G. A., et al., Proc Natl Acad Sci USA 81, 5330-5334 (1984)), which directs proteins into the secretory pathway, and introduced into pBEVY-GU in the following way. Vector pPIC9 (Invitrogen) served as template for PCR amplification of the α-mating factor secretion signal (5′ primer: […] (SEQ ID NO: 2); 3′ primer: […] (SEQ ID NO: 3)), introducing an EcoRI site at the 5′ end, and a sequence complementary to that encoding the N-terminus of the calcium sensor at the 3′ end. DNA encoding the N-terminal portion of the calcium sensor D3 cpV, comprising CFP, was amplified by PCR (5′ primer: […] (SEQ ID NO: 4); 3′ primer: […] (SEQ ID NO: 5)), introducing an SphI site followed by a stop codon and a NotI site at the 3′ end of the resulting DNA fragment. […]

ORAI1 (E106Q) = ORAI1 (E106Q) (Homo sapiens, UniProt Q96D31, E106Q); test: Cameleon D3 cpV intravesicular Ca^2+ assay, vesicles with ORAI1 (E106Q); assay type: biochemical; set-up: the ORAI functional fragment is ORAI1 (65-301), ORAI1 (65-87), or full length ORAI1; made in house; host or cells: S. cerevisiae NY17 (sec6-4), isolated secretory vesicles; settings: vesicles containing ORAI1 (E106Q)
Excerpt: as §1, §2

T1 sequence (Q96D31 2-301 R91W): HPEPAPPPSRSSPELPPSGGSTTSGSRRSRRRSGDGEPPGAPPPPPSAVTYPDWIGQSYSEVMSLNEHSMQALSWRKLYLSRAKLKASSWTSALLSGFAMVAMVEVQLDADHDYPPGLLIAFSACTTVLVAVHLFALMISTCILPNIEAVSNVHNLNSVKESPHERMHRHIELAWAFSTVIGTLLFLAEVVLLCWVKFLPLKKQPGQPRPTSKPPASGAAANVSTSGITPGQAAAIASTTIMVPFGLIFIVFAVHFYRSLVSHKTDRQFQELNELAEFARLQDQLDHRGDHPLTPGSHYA
ORAI1 (E106Q), sequence (Q96D31 2-301 E106Q): as the sequence (Q96D31 2-301 R91W) above, with W90R, E105Q counted along it

Question: With “STIM1^CT: cytoplasmic region of STIM1, mouse residues 233-685, His-tagged recombinant protein expressed in E coli” as the substance, how does the “Ca^2+ release from vesicles” value (ORAI1 (R91W)) read?
Answer: did not elicit Ca^2+ release

Question: What about the “Ca^2+ release from vesicles” value (ORAI1 (E106Q)) of the same substance?
Answer: did not elicit Ca^2+ release
